This is an account of results in US20230272056A1 (Merck Sharp & Dohme, published 2023).

The target of experiment [1] is T1, human LAP-TGFB1 Fc fusion (human).
T1 construct: also called human LAP-TGFβ1-Fc; human LAP-TGFβ-Fc isoform 1
In words: SPR pH 7.4, antigen-Fc captured, Fab analyte.

In experiment [2] the target is T2, human LAP-TGFB3 Fc fusion (human).
T2 construct: also called human LAP-TGFβ3; LAP-TGFβ isoform 3
In words: SPR pH 7.4.

Experiment [3] addresses T3, human LAP-TGFB2 Fc fusion (human).
T3 construct: also called human LAP-TGFβ2; LAP-TGFβ isoform 2
In words: SPR pH 7.4.

Experiment [4] addresses T1, human LAP-TGFB1 Fc fusion. In words: SPR pH 6.0, antigen-Fc captured, Fab analyte. How it is done:
A Series S CM4 sensor chip (Cytiva, catalog BR100534) was immobilized with an anti-human Fc capture antibody following the kit protocol (Cytiva, catalog BR100839) on a Biacore T200 instrument with 1× HBS-EP+ (Teknova, catalog H8022). […] The binding data were double referenced by subtraction of signal from a reference (capture surface only) flow cell and the 0 nM Fab injection. Binding rate constants were determined by fitting the data with a 1:1 binding model (Cytiva Biacore T200 Evaluation software 3.0).

In experiment [5] the target is T1, human LAP-TGFB1 Fc fusion. As to the kind of experiment: SPR.
Experiment [6] addresses T1, human LAP-TGFB1 Fc fusion. In words: SPR pH 7.4, antigen-Fc captured, Fab analyte. This is another data set of the same source.
Experiment [7] concerns the target T1, human LAP-TGFB1 Fc fusion. As to the kind of experiment: SPR pH 7.4, antigen captured on Fab 54BLH. From the text:
A Series S C1 sensor chip (Cytiva, catalog BR100535) was immobilized with low densities of high affinity Fab 54BLH on a Biacore T200 instrument with 1×HBS-EP+(Teknova, catalog H8022). This surface served as a monovalent capture surface for a low-density layer of heterodimer human LAP-TGFβ1 complex leaving the second binding site exposed for monovalent kinetic binding analysis with both mAbs and Fabs. Immobilized flow cell 1 served as the reference and flow cells 2, 3 and 4 were used to evaluate the binding interaction between human LAP-TGFβ1 and yeast display mutant mAbs and Fabs.
Approximately 15-25 RU of human LAP-TGFβ1-Fc was captured to the Fab capture surface followed by injection of 1:3 serially diluted Fabs and mAbs from 6 nM to 0.07 nM (Fabs: 54BLH, 55BLH, 60BLH, 63BLH, 64BLH-mAbs: 69BLH, 70BLH) and 1:3 serially diluted Fab and mAbs from 60 nM to 0.74 nM (Fabs: 59BLH, 66BLH, 67BLH—mAbs: 74BLH, 75BLH, 78BLH, 79BLH, 81BLH, 82BLH) including 0 nM. The binding data was double referenced by subtraction of signal from a reference flow cell and the 0 nM injections for evaluation of Fabs and mAbs respectively. Binding rate constants were calculated/determined by fitting the data with a 1:1 binding model (Cytiva Biacore T200 Evaluation software 3.0).

The target in experiment [8] is T1, human LAP-TGFB1 Fc fusion. In words: SPR pH 6.0, antigen captured on Fab 54BLH. The gist of the method:
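Human LAP-TGFβ1-Fc (~15-25 RU) captured on a low-density 54BLH Fab surface in HBS-EP+, leaving one epitope free for monovalent kinetics. Fabs/mAbs injected in 1:3 series, 6–0.07 nM or 60–0.74 nM plus 0 nM. Double-referenced; rate constants from 1:1 binding fit.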

T2 sequence (chain, as listed by the source limits assumed): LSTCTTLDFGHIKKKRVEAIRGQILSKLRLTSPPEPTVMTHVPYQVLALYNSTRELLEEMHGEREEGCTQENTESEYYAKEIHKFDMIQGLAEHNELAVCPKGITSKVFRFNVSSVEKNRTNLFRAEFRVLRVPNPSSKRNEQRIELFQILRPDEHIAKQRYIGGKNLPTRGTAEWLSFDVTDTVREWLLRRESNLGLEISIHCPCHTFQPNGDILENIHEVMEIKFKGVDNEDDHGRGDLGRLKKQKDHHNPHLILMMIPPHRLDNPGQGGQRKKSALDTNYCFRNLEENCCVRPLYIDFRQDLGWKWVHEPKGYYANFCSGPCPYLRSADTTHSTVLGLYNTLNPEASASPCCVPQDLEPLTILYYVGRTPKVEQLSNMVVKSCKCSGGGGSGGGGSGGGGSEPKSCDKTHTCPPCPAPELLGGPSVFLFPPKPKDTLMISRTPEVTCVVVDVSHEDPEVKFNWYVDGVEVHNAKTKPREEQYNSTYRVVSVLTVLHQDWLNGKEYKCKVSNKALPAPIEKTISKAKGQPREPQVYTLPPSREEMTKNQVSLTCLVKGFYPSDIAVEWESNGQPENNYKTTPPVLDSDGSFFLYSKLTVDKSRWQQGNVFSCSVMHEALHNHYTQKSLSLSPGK
T3 sequence (chain, as listed by the source limits assumed): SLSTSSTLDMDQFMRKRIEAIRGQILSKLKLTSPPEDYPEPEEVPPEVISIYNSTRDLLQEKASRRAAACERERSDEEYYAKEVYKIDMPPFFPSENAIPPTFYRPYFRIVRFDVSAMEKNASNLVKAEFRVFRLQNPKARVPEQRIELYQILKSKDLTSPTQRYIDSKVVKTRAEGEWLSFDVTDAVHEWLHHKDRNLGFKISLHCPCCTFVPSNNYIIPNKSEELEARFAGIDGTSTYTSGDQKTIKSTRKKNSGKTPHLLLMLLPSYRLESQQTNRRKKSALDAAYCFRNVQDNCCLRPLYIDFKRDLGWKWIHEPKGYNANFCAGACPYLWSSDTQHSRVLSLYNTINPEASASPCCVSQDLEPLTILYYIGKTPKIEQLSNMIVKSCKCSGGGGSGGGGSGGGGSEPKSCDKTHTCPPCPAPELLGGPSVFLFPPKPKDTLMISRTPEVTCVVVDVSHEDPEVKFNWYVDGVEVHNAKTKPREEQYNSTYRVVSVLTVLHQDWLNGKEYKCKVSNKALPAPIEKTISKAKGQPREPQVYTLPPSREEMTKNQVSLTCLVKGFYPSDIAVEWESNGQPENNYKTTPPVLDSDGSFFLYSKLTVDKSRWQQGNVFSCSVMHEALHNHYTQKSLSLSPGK
T1 sequence (chain, as listed by the source limits assumed): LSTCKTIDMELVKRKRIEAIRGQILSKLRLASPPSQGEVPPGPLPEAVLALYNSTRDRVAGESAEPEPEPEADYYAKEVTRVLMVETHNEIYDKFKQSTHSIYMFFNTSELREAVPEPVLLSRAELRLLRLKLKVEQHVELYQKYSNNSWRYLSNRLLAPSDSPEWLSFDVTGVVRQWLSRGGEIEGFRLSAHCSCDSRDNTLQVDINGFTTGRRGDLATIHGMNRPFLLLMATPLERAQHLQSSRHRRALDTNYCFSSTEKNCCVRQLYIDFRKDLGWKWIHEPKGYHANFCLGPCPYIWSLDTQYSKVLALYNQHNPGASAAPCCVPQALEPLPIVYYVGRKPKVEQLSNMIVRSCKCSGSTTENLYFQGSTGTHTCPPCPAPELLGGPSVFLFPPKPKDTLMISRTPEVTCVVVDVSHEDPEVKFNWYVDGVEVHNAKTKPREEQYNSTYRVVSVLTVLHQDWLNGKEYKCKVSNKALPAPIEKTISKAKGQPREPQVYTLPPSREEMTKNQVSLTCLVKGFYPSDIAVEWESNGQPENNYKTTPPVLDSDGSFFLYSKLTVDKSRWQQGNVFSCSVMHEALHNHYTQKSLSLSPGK

B1: 54BLH (Fab, V domains shown)
VH: EVQLVQSGAEVKKPGASVKVSCKASGYTFTSYDMHWVRQAPGQGLEWMGRIDPQSGGIRYAQKFQGRATLTVDTSTSTAYMELSRLRSDDTAVYYCARWDYGGQFDVWGQGTLVTVSS
VL: DIQMTQSPSSLSASVGDRVTITCRASQDIYNYLNWYQQKPGKAVKLLIYYTSILETGVPSRFSGSGSGTDYTLTISSLQPEDFATYFCQQGDTLPWTFGQGTKLEIK
notes: also called 06BLM Fab
For the molecule B1, the “Fold improvement in KD” value in experiment [1] was determined as 14600 fold. Also, the Kd was found to be 0.004 nM in experiment [1]; 0.006 nM in experiment [4]; 0.004 nM in experiment [6]; 0.00477 nM in experiment [7]; 0.0217 nM in experiment [8]. The koff in experiment [1] was 2.07e-05 s⁻¹; in experiment [4], 4.73e-05 s⁻¹; in experiment [6], 2.07e-05 s⁻¹; in experiment [7], 3.34e-05 s⁻¹; in experiment [8] it was 0.000101 s⁻¹. Besides, the kon in experiment [1] worked out at 4.96e+06 M⁻¹ s⁻¹; in experiment [4], 7.56e+06 M⁻¹ s⁻¹; in experiment [6] it was 4.96e+06 M⁻¹ s⁻¹; in experiment [7], 7.03e+06 M⁻¹ s⁻¹; in experiment [8] it was 4.65e+06 M⁻¹ s⁻¹. The binding result in experiment [2] and in experiment [3] was “no binding (tested: 1000 nM Fab)” each time. Further, in experiment [5], the “Fold change in KD from pH 7.4 to pH 6” value came to 1.5 fold.

B2: 63BLH (Fab, V domains shown)
VH: EVQLVQSGAEVKKPGASVKVSCKASGYTFTSYDMHWVRQAPGQGLEWMGRIDPQSGGIKYAQKFQGRATLTVDTSTSTAYMELSRLRSDDTAVYYCARWDYGGYFDVWGQGTLVTVSS
VL: DIQMTQSPSSLSASVGDRVTITCRASQDIYNYLNWYQQKPGKAVKLLIYYTSRLETGVPSRFSGSGSGTDYTLTISSLQPEDFATYFCQQGDTLPWTFGQGTKLEIK
notes: also called 15BLM Fab; 015BLM Fab
For B2, the “Fold improvement in KD” value in experiment [1] amounted to 197 fold. The Kd in experiment [1] was determined as 0.297 nM; in experiment [4], 0.369 nM; in experiment [6], 0.297 nM; in experiment [7], 0.355 nM; in experiment [8] it was 1.06 nM. The koff in experiment [1] was 0.00198 s⁻¹; in experiment [4], 0.00277 s⁻¹; in experiment [6] it was 0.00198 s⁻¹; in experiment [7] it was 0.00341 s⁻¹; in experiment [8] it was 0.00796 s⁻¹. The kon in experiment [1] was 6.79e+06 M⁻¹ s⁻¹; in experiment [4], 7.51e+06 M⁻¹ s⁻¹; in experiment [6] it was 6.79e+06 M⁻¹ s⁻¹; in experiment [7], 9.61e+06 M⁻¹ s⁻¹; in experiment [8], 7.51e+06 M⁻¹ s⁻¹. The binding result in experiment [2] and in experiment [3] was “no binding (tested: 1000 nM Fab)” in each case. Also, the “Fold change in KD from pH 7.4 to pH 6” value in experiment [5] was 1.2 fold.

B3: 60BLH (Fab, V domains shown)
VH: EVQLVQSGAEVKKPGASVKVSCKASGYTFTSYDMHWVRQAPGQGLEWMGRIDPQSGGVKYAQKFQGRATLTVDTSTSTAYMELSRLRSDDTAVYYCARWDYGGYFDVWGQGTLVTVSS
VL: DIQMTQSPSSLSASVGDRVTITCRASQDIYNYLNWYQQKPGKAVKLLIYYTSVLETGVPSRFSGSGSGTDYTLTISSLQPEDFATYFCQQGDELPWTFGQGTKLEIK
notes: also called 12BLM Fab
On to B3, for which, in experiment [1], the “Fold improvement in KD” value is 2440 fold. Further, the Kd amounted to 0.024 nM in experiment [1]; 0.067 nM in experiment [4]; 0.024 nM in experiment [6]; 0.036 nM in experiment [7]; 0.296 nM in experiment [8]. Further, the koff came out at 0.000186 s⁻¹ in experiment [1]; 0.000481 s⁻¹ in experiment [4]; 0.000186 s⁻¹ in experiment [6]; 0.000348 s⁻¹ in experiment [7]; 0.00167 s⁻¹ in experiment [8]. In addition, the kon in experiment [1] stood at 7.91e+06 M⁻¹ s⁻¹; in experiment [4], 7.23e+06 M⁻¹ s⁻¹; in experiment [6], 7.91e+06 M⁻¹ s⁻¹; in experiment [7], 9.65e+06 M⁻¹ s⁻¹; in experiment [8], 5.65e+06 M⁻¹ s⁻¹. In addition, the binding result in experiment [2] and in experiment [3] was “no binding (tested: 1000 nM Fab)” in each case. Also, the “Fold change in KD from pH 7.4 to pH 6” value in experiment [5] was 2.8 fold.

B4: 67BLH (Fab, V domains shown)
VH: EVQLVQSGAEVKKPGASVKVSCKASGYTFTSYDMHWVRQAPGQGLEWMGRIDPQSGGIKYAQKFQGRATLTVDTSTSTAYMELSRLRSDDTAVYYCARYDHGGYFDVWGQGTLVTVSS
VL: DIQMTQSPSSLSASVGDRVTITCRASQDIYNYLNWYQQKPGKAVKLLIYYTSYLETGVPSRFSGSGSGTDYTLTISSLQPEDFATYFCQQGDTLPWTFGQGTKLEIK
notes: also called 19BLM Fab
B4: the “Fold improvement in KD” value in experiment [1] stood at 61 fold. For the same molecule, the Kd in experiment [1] was found to be 0.961 nM; in experiment [4], 1.59 nM; in experiment [6], 0.961 nM; in experiment [7], 2.36 nM; in experiment [8] it was 18.8 nM. The koff in experiment [1] was 0.00476 s⁻¹; in experiment [4], 0.0122 s⁻¹; in experiment [6] it was 0.00476 s⁻¹; in experiment [7], 0.0155 s⁻¹; in experiment [8], 0.046 s⁻¹. The kon in experiment [1] was determined as 4.95e+06 M⁻¹ s⁻¹; in experiment [4] it was 7.63e+06 M⁻¹ s⁻¹; in experiment [6] it was 4.95e+06 M⁻¹ s⁻¹; in experiment [7], 6.69e+06 M⁻¹ s⁻¹; in experiment [8] it was 2.44e+06 M⁻¹ s⁻¹. Also, the binding result in experiment [2] and in experiment [3] was “no binding (tested: 1000 nM Fab)” throughout. In experiment [5], the “Fold change in KD from pH 7.4 to pH 6” value came out at 1.7 fold.

B5: 59BLH (Fab, V domains shown)
VH: EVQLVQSGAEVKKPGASVKVSCKASGYTFTSYDMHWVRQAPGQGLEWMGRIDPQSGGIRYAQKFQGRATLTVDTSTSTAYMELSRLRSDDTAVYYCARWDYGGYFDVWGQGTLVTVSS
VL: DIQMTQSPSSLSASVGDRVTITCRASQDIYNYLNWYQQKPGKAVKLLIYYTSVLETGVPSRFSGSGSGTDYTLTISSLQPEDFATYFCQQGDTLPWTFGQGTKLEIK
notes: also called 11BLM Fab
In the case of B5, in experiment [1], the “Fold improvement in KD” value was 887 fold. The Kd in experiment [1] is 0.066 nM; in experiment [4], 0.049 nM; in experiment [6], 0.066 nM; in experiment [7], 0.044 nM; in experiment [8], 0.179 nM. The koff in experiment [1] is 0.00047 s⁻¹; in experiment [4] it was 0.000543 s⁻¹; in experiment [6], 0.00047 s⁻¹; in experiment [7] it was 0.000575 s⁻¹; in experiment [8] it was 0.00126 s⁻¹. Further, the kon in experiment [1] turned out to be 7.1e+06 M⁻¹ s⁻¹; in experiment [4], 1.11e+07 M⁻¹ s⁻¹; in experiment [6], 7.1e+06 M⁻¹ s⁻¹; in experiment [7] it was 1.31e+07 M⁻¹ s⁻¹; in experiment [8] it was 7.08e+06 M⁻¹ s⁻¹. Moreover, the binding result in experiment [2] and in experiment [3] was “no binding (tested: 1000 nM Fab)” in each case. Further, the “Fold change in KD from pH 7.4 to pH 6” value in experiment [5] was determined as 0.7 fold.

B6: 55BLH (Fab, V domains shown)
VH: EVQLVQSGAEVKKPGASVKVSCKASGYTFTSYDMHWVRQAPGQGLEWMGRIDPQSGGIRYAQKFQGRATLTVDTSTSTAYMELSRLRSDDTAVYYCARWDYGGYFDVWGQGTLVTVSS
VL: DIQMTQSPSSLSASVGDRVTITCRASQDIYSYLNWYQQKPGKAVKLLIYYTSNLETGVPSRFSGSGSGTDYTLTISSLQPEDFATYFCQQGDTLPWTFGQGTKLEIK
notes: also called 07BLM Fab
Turning to B6, in experiment [1], the “Fold improvement in KD” value amounted to 992 fold. For the same molecule, the Kd worked out at 0.059 nM in experiment [1]; 0.105 nM in experiment [4]; 0.059 nM in experiment [6]; 0.125 nM in experiment [7]; 0.335 nM in experiment [8]. Further, the koff was determined as 0.000528 s⁻¹ in experiment [1]; 0.000757 s⁻¹ in experiment [4]; 0.000528 s⁻¹ in experiment [6]; 0.00109 s⁻¹ in experiment [7]; 0.00248 s⁻¹ in experiment [8]. Moreover, the kon is 9.08e+06 M⁻¹ s⁻¹ in experiment [1]; 7.17e+06 M⁻¹ s⁻¹ in experiment [4]; 9.08e+06 M⁻¹ s⁻¹ in experiment [6]; 8.75e+06 M⁻¹ s⁻¹ in experiment [7]; 7.39e+06 M⁻¹ s⁻¹ in experiment [8]. The binding result in experiment [2] and in experiment [3] was “no binding (tested: 1000 nM Fab)” throughout. The “Fold change in KD from pH 7.4 to pH 6” value in experiment [5] stood at 1.8 fold.
